T1: Lis1^39–410 (human, UniProt P43034 39-410)
T1 sequence (looked up): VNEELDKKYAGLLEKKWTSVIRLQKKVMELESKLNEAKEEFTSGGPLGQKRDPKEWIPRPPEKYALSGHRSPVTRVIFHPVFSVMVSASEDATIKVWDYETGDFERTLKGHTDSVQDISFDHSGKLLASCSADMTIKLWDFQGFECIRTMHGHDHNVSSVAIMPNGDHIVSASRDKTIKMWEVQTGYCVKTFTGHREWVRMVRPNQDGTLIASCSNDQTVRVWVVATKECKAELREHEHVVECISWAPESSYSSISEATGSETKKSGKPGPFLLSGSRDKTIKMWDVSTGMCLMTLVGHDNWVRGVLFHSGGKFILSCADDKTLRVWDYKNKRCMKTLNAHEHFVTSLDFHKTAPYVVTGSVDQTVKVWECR

B1: Nde1^1–190 (N-terminus of human Nde1) (domain or fragment, UniProt Q9NXR1 1-190, looked up)
chain: MEDSGKTFSSEEEEANYWKDLAMTYKQRAENTQEELREFQEGSREYEAELETQLQQIETRNRDLLSENNRLRMELETIKEKFEVQHSEGYRQISALEDDLAQTKAIKDQLQKYIRELEQANDDLERAKRATIMSLEDFEQRLNQAIERNAFLESELDEKENLLESVQRLKDEARDLRQELAVQQKQEKPR
modifications: LD555 dye in the analytical SEC
notes: Nde1, human, N-terminal coiled-coil, residues 1-190 (C-terminus truncated); also called Nde1^1–190-LD555; source: Sf9 (baculovirus, pOmniBac), purified (IgG Sepharose, TEV elution, Superdex 200 Increase SEC)
B2: human Lis1 (natural protein, UniProt P43034 1-410, looked up)
chain: MVLSQRQRDELNRAIADYLRSNGYEEAYSVFKKEAELDVNEELDKKYAGLLEKKWTSVIRLQKKVMELESKLNEAKEEFTSGGPLGQKRDPKEWIPRPPEKYALSGHRSPVTRVIFHPVFSVMVSASEDATIKVWDYETGDFERTLKGHTDSVQDISFDHSGKLLASCSADMTIKLWDFQGFECIRTMHGHDHNVSSVAIMPNGDHIVSASRDKTIKMWEVQTGYCVKTFTGHREWVRMVRPNQDGTLIASCSNDQTVRVWVVATKECKAELREHEHVVECISWAPESSYSSISEATGSETKKSGKPGPFLLSGSRDKTIKMWDVSTGMCLMTLVGHDNWVRGVLFHSGGKFILSCADDKTLRVWDYKNKRCMKTLNAHEHFVTSLDFHKTAPYVVTGSVDQTVKVWECR
modifications: benzylguanine dyes on the SNAP tag, by experiment: LD555, LD655, or Alexa488 and biotin
notes: Lis1 (noncatalytic beta subunit of PAF-AH1B), human; Homodimer by mass photometry; also called full-length Lis1; SNAP-Lis1; source: Sf9 (baculovirus, pOmniBac), purified (IgG Sepharose, TEV elution, Superdex 200 Increase SEC)
B3: mtLis1 (dynein-binding mutant of Lis1, R316A and W340A) (natural protein, human, UniProt P43034 1-410, looked up)
chain: B2 chain with R316A, W340A
modifications: LD555, or Alexa488 and biotin, on the SNAP tag in the colocalization assays
notes: Lis1, human, with R316A and W340A on the beta-propeller domain; forms a dimer like Lis1; source: Sf9 (baculovirus, pOmniBac), purified (IgG Sepharose, TEV elution, SEC)
B4: Nde1^E118A/R129A (Lis1 binding mutant of Nde1), Q9NXR1 1-335 (natural protein)
chain: MEDSGKTFSSEEEEANYWKDLAMTYKQRAENTQEELREFQEGSREYEAELETQLQQIETRNRDLLSENNRLRMELETIKEKFEVQHSEGYRQISALEDDLAQTKAIKDQLQKYIRELAQANDDLERAKAATIMSLEDFEQRLNQAIERNAFLESELDEKENLLESVQRLKDEARDLRQELAVQQKQEKPRTPMPSSVEAERTDTAVQATGSVPSTPIAHRGPSSSLNTPGSFRRGLDDSTGGTPLTPAARISALNIVGDLLRKVGALESKLASCRNLVYDQSPNRTGGPASGRSSKNRDGGERRPSSTSVPLGDKGLDTSCRWLSKSTTRSSSSC
modifications: here or on the partner: a fluorescent dye in the colocalization assays; LD655, or Alexa488 and biotin, where labelled
B5: human Nde1 (natural protein, UniProt Q9NXR1 1-335, looked up)
chain: B4 chain with A118E, A129R
modifications: LD655 or LD555 dye where labelled
notes: Nde1, human; Labelled through a SNAP or a ybbR tag; also called full-length Nde1; WT Nde1; source: Sf9 (baculovirus, pOmniBac), purified (IgG Sepharose, TEV elution, Superdex 200 Increase SEC)
B6: Nde1^E118K/R129E (Lis1 binding mutant of Nde1), Q9NXR1 1-335 (natural protein)
chain: B4 chain with A118K, A129E
modifications: here or on the partner: a fluorescent dye in the colocalization assays; LD655, or Alexa488 and biotin, where labelled
B7: Nde1^E118K/R129E (Lis1 binding mutant of Nde1) (natural protein, human, UniProt Q9NXR1 1-335, looked up)
chain: B4 chain with A118K, A129E
modifications: a fluorescent dye in the colocalization assays
notes: Nde1, human, with E118K and R129E; Probably in full-length Nde1; source: Sf9 (baculovirus, pOmniBac), purified (IgG Sepharose, TEV elution, SEC)
B8: Nde1^E47K (DIC binding mutant of Nde1) (natural protein, human, UniProt Q9NXR1 1-335, looked up)
chain: B4 chain with E47K, A118E, A129R
modifications: a fluorescent dye in the colocalization assays
notes: Nde1, human, with E47K; Probably in full-length Nde1; source: Sf9 (baculovirus, pOmniBac), purified (IgG Sepharose, TEV elution, SEC)
B9: Nde1^E47A (DIC binding mutant of Nde1) (natural protein, human, UniProt Q9NXR1 1-335, looked up)
chain: B4 chain with E47A, A118E, A129R
modifications: a fluorescent dye in the colocalization assays
notes: Nde1, human, with E47A; Probably in full-length Nde1; source: Sf9 (baculovirus, pOmniBac), purified (IgG Sepharose, TEV elution, SEC)
B10: Nde1^E118A/R129A (Lis1 binding mutant of Nde1) (natural protein, human, UniProt Q9NXR1 1-335, looked up)
chain: B4 chain
modifications: a fluorescent dye in the colocalization assays
notes: Nde1, human, with E118A and R129A; Probably in full-length Nde1; source: Sf9 (baculovirus, pOmniBac), purified (IgG Sepharose, TEV elution, SEC)

Data set [1] has as its target dynein mutant unable to attain the phi conformation (mtDyn) (human) (UniProt Q14204). As to the kind of experiment: single-molecule colocalization (TIRF); dynein (Alexa488 and biotin on its SNAP tag, 0.2 nM) immobilised on streptavidin / biotin-PEG glass; labelled prey in MB buffer (30 mM HEPES pH 7.0, 5 mM MgSO4, 1 mM EGTA, casein, pluronic, DTT, Taxol), 10 min, unbound prey not washed away; third proteins added.

Data set [2] addresses wild-type human dynein (cytoplasmic dynein-1 complex) (human) (UniProt Q14204). The data set is described as above.
Another data set deals with WT dynein-GFP (human) (UniProt Q14204). As to the kind of experiment: real-time TIRF of the initiation of DDR motility; microtubules decorated with WT dynein-GFP and Nde1-LD655 in the absence of Lis1; dynactin and BicDR1 (one of them LD555-labelled) flown in during imaging.
Data set [3] concerns the molecule itself. As to the kind of experiment: mass photometry; proteins diluted to 5–20 nM in 30 mM HEPES pH 7.4, 5 mM MgSO4, 1 mM EGTA, 10% glycerol; Refeyn TwoMP; profiles fitted to multiple Gaussians.
Data set [4] has as its target dynein-dynactin-BicDR1 complex assembled with wild-type human dynein (wtDDR) (human | pig | mouse) (UniProt Q14204). As to the kind of experiment: three-color TIRF comigration on microtubules; 100 nM BicDR1-mNG, 10 nM LD555-Lis1 and 10 nM LD655-Nde1 preincubated with the DDR components; processive runs on surface-immobilised microtubules.
Data set [5] addresses wild-type human dynein (cytoplasmic dynein-1 complex) (human) (UniProt Q14204). As to the kind of experiment: single-molecule colocalization (TIRF); dynein (Alexa488 and biotin on its SNAP tag, 0.2 nM) immobilised on streptavidin / biotin-PEG glass; labelled prey in MB buffer (30 mM HEPES pH 7.0, 5 mM MgSO4, 1 mM EGTA, casein, pluronic, DTT, Taxol), 10 min, unbound prey not washed away; third proteins added. The source holds these as a separate data set.

The target of data set [6] is dynein mutant unable to attain the phi conformation (mtDyn) (human), Q14204.
A further data set concerns the target T1, Lis1^39–410. As to the kind of experiment: cell-based or functional assay.
The target in the data set “human Lis1” is B2. As to the kind of experiment: cell-based or functional assay.
Data set [7] has as its target dynein mutant unable to attain the phi conformation (mtDyn) (human) (UniProt Q14204).

Where a chain is given by its changes, count along the chain named. Names may count otherwise.

Usually stoichiometry N stands for the number of molecules, sites or subunits per partner or assembly.

Chain of dynein-dynactin-BicDR1 complex assembled with wild-type human dynein (wtDDR) (human | pig | mouse) (Q14204 whole entry, looked up, one chain of several): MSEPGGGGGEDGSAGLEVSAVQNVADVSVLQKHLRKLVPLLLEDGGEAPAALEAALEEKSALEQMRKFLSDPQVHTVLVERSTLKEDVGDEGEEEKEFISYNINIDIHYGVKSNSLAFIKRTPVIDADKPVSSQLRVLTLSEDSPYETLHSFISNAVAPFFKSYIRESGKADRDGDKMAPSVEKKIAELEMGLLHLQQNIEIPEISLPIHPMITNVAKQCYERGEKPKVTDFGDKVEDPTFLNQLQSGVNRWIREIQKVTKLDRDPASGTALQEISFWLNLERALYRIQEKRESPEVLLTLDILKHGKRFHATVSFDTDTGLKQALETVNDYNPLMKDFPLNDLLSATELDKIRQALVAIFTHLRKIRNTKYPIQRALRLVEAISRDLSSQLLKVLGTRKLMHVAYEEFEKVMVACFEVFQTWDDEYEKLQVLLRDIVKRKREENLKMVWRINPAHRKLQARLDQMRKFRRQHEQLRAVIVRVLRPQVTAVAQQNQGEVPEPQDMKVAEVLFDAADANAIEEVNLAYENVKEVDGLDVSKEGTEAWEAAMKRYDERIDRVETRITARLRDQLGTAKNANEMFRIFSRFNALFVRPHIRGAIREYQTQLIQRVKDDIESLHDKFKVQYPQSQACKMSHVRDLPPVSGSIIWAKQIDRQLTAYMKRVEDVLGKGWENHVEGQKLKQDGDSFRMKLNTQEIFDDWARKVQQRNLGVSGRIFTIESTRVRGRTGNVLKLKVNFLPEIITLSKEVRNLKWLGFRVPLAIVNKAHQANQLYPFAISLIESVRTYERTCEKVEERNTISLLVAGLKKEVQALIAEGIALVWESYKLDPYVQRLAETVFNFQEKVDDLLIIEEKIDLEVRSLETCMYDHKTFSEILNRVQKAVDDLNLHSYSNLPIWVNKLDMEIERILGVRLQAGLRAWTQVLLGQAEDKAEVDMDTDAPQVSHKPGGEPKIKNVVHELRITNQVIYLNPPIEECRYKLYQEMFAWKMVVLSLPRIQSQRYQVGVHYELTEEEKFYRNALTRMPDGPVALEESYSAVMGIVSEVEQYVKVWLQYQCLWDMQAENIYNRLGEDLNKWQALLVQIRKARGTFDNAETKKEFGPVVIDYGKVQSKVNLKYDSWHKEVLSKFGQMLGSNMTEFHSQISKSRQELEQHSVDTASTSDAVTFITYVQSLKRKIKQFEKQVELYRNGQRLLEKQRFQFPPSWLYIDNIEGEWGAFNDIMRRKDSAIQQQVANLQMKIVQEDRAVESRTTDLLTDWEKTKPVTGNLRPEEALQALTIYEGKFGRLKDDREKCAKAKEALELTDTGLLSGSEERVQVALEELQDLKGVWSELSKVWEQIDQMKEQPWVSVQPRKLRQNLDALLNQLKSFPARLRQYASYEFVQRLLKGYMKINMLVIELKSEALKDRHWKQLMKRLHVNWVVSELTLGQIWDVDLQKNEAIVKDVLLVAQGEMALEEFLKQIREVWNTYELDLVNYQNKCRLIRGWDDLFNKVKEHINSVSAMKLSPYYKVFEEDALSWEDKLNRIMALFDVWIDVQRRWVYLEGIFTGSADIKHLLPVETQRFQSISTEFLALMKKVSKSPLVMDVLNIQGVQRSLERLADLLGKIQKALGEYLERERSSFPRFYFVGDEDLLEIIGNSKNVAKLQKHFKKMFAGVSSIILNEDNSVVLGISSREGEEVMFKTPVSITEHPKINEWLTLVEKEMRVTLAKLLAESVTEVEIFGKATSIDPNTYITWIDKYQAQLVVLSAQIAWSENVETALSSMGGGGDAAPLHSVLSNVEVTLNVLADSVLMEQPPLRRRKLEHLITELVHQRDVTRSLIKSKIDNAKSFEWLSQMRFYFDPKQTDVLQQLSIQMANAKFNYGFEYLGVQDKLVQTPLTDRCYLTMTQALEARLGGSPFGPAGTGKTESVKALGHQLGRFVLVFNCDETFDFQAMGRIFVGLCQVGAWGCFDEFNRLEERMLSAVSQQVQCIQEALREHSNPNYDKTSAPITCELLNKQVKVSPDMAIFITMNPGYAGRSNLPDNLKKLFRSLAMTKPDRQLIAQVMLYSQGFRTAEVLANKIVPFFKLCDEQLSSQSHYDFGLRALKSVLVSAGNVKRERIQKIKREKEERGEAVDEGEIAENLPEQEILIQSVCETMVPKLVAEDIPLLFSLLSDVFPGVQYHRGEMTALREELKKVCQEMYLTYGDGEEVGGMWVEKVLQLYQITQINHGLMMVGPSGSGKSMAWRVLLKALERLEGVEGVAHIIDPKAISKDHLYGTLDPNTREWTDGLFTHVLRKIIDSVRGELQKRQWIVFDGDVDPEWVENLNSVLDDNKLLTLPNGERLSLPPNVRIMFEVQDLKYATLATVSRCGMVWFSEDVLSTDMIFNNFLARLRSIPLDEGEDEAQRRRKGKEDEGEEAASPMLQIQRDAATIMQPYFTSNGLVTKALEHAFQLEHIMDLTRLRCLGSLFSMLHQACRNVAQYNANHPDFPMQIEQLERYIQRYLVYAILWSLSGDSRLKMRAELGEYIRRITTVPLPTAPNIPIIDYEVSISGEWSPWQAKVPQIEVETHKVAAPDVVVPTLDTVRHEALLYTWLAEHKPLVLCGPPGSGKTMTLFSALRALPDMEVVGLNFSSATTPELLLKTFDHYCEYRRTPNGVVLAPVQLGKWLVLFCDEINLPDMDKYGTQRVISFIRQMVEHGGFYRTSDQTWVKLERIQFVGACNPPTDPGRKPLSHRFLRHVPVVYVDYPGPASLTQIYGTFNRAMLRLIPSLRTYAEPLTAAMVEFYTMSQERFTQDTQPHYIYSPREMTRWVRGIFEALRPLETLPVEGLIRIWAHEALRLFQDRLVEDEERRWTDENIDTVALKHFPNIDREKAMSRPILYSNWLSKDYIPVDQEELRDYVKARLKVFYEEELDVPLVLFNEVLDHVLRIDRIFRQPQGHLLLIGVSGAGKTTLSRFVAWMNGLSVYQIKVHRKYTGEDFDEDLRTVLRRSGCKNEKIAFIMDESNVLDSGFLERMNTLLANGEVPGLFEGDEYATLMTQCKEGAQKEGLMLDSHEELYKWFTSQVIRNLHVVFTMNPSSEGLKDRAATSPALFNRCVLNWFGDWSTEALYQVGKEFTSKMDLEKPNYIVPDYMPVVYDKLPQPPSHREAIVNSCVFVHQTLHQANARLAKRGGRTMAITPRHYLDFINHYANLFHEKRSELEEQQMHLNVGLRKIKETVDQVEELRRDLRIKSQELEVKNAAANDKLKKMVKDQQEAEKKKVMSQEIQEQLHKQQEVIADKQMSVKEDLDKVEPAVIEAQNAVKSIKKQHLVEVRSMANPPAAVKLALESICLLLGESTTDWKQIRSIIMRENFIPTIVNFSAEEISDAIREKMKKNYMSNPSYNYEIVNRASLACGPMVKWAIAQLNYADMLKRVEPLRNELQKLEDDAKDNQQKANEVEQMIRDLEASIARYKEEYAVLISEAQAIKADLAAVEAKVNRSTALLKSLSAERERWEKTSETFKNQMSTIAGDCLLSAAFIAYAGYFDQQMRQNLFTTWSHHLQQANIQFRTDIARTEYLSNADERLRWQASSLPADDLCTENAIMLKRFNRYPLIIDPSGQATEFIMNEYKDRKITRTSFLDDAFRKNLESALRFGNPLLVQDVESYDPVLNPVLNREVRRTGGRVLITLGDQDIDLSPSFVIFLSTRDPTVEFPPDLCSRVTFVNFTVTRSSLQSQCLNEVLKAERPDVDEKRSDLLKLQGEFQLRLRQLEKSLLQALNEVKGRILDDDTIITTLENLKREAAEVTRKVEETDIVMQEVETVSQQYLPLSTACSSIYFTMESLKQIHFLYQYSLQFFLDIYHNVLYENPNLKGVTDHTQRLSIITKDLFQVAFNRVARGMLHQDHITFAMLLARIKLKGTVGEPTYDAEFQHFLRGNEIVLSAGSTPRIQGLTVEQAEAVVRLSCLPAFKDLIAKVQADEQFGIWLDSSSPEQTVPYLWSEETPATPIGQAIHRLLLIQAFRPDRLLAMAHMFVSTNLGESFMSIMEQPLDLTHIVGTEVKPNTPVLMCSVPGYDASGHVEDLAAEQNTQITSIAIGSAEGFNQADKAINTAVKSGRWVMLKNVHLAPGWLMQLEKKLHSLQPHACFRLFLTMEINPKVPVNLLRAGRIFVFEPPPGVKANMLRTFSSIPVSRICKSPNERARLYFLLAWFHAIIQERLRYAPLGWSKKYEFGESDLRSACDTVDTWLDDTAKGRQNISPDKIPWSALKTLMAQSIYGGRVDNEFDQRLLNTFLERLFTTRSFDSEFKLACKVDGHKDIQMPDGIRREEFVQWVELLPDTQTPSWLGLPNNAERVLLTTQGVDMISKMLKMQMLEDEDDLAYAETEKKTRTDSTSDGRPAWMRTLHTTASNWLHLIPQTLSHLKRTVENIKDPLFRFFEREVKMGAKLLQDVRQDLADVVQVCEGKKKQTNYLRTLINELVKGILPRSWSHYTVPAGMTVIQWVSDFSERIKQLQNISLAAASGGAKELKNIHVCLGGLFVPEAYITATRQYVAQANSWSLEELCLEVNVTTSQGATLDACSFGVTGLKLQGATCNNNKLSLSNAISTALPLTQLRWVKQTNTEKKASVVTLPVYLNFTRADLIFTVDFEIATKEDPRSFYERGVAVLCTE

In the case of “pig brain dynactin (from UniProt A0A287B8J2 1-1281) (complex)”, the percent reduction of Nde1 colocalization to dynein (150 nM dynactin, 25 nM Nde1) in [1] turned out to be 75%; in data set [2], 37%. For the same molecule, the percent of dynein-colocalized Nde1 spots released with WT dynein-GFP (human) was 96%.

Take B1: in [3], the “stoichiometry N” value was 2.

In data set [4], B2 yielded a percent of DDR complexes that co-migrate with Lis1 of 70%. In [5], this molecule gave an average bound time of 12 s and an average bound time with Nde1 added of 35 s. For the same molecule, the “stoichiometry N” value in data set [3] is 2.

With B3, in data set [3], the “stoichiometry N” value amounted to 2.

Consider B4, for which, in data set [6], the decrease of the frequency of mtDDR runs with 250 nM Nde1 mutant in the absence of Lis1 was found to be 50%.

As to B5, the “wtDDR run frequency on addition of 10 nM Nde1 with 100 nM Lis1^39–410” value with Lis1^39–410 is 3.2 fold. For the same molecule, the “wtDDR run frequency on addition of 10 nM Nde1 with full-length Lis1” value with human Lis1 is above 10 fold. In addition, in [5], the average bound time was found to be 21 s and the average bound time with Lis1 added was found to be 42 s. For the same molecule, the “stoichiometry N” value in data set [3] came out at 2. The decrease of the frequency of mtDDR runs with 250 nM Nde1 in the absence of Lis1 in data set [7] stood at 50%.

In [6], B6 came in with a decrease of the frequency of mtDDR runs with 250 nM Nde1 mutant in the absence of Lis1 of 50%.

In the case of B7, the “stoichiometry N” value in [3] stood at 2.

Turning to B8, in data set [3], the “stoichiometry N” value was 2.

Consider B9, for which, in data set [3], the “stoichiometry N” value was 2.

Turning to B10, the “stoichiometry N” value in data set [3] is 2.

The values are drawn from article PMC10632352, “Nde1 promotes Lis1-mediated activation of dynein” (Nature Communications, 2023).
